Experiment [1] has as its target T1, recombinant murine GITR Fc(kih) (murine, UniProt P0DOX5 223-449 = IgG part, biotin on C-terminal Avi tag).
T1 construct: also called mu GITR-Fc
Nature of the experiment: SPR Biacore T200. (In general: Surface plasmon resonance follows binding to a sensor surface in real time, without labels.)
Method: All SPR experiments were performed on a Biacore T200 at 25° C. with HBS-EP as running buffer (0.01 M HEPES pH 7.4, 0.15 M NaCl, 3 mM EDTA, 0.005% Surfactant P20, Biacore, Freiburg/Germany). In the same experiment, the species selectivity and the avidity of the interaction between the GITR binder (human IgG1 P329GLALA), and recombinant GITR (human, cyno and murine) was determined. […] Immobilization levels up to 100 resonance units (RU) were used.
Anti-GITR human IgG1 P329GLALA antibody was passed at a concentration range from 0.2 to 200 nM (4-fold dilution) with a flow of 30 μL/minute through the flow cells over 120 seconds. Complex dissociation was monitored for 180 seconds. Bulk refractive index differences were corrected for by subtracting the response obtained in a reference flow cell, where no protein was immobilized.

The target in experiment [2] is T2, recombinant human GITR Fc(kih) (human, UniProt P0DOX5 223-449 = IgG part, biotin on C-terminal Avi tag where used biotinylated).
T2 construct: also called hu GITR-Fc; human monomeric GITR-Fc fusion
The experiment is described as follows: SPR, captured IgG, GITR Fc(kih) analyte.
Method: (§1) In the same experiment, the affinities of the interaction between the GITR antibody (human IgG1 P329GLALA) to recombinant GITR (human and cyno) were determined. Anti-human Fab antibody (Biacore, Freiburg/Germany) was directly coupled on a CM5 chip at pH 5.0 using the standard amine coupling kit (Biacore, Freiburg/Germany). The immobilization level was approximately 7000 RU. The GITR antibody was captured for 90 seconds at 5 nM. […] The dissociation was monitored for 180 seconds. Bulk refractive index differences were corrected for by subtracting the response obtained on reference flow cell.

Experiment [3] deals with T3, recombinant cynomolgus GITR Fc(kih) (cynomolgus, UniProt P0DOX5 223-449 = IgG part, biotin on C-terminal Avi tag where used biotinylated).
T3 construct: also called cy GITR-Fc
The experiment is described as follows: SPR, captured IgG, GITR Fc(kih) analyte.
Method: as §1

Experiment [4] addresses T4, human OX40 on cells (human, UniProt P43489 29-277).
T4 sequence: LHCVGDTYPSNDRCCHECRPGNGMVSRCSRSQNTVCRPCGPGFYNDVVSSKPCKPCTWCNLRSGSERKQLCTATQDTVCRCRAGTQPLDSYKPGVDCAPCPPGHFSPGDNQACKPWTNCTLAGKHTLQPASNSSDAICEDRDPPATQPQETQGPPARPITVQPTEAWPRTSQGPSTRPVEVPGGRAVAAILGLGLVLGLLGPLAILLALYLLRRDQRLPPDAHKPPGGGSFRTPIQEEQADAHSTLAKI
Nature of the experiment: cell-based or functional assay.

Experiment [5] addresses T5, recombinant human OX40 His (human).
T5 construct: ectodomain with avi and hexahistidine tag; also called human Ox40 avi His
T5 chain: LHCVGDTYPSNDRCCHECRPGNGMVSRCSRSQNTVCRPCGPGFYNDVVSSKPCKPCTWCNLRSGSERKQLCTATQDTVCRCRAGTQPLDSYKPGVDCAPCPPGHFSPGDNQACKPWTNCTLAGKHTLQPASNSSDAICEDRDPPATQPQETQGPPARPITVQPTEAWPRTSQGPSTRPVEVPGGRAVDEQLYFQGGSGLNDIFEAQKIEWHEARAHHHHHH
The experiment is described as follows: SPR, captured IgG, OX40 His analyte.
Method: (§2) All SPR experiments were performed on a Biacore T200 at 25° C. with HBS-EP as running buffer (0.01 M HEPES pH 7.4, 0.15 M NaCl, 3 mM EDTA, 0.005% Surfactant P20, Biacore, Freiburg/Germany).
Setup 2) Anti-human Fc antibody (Biacore, Freiburg/Germany) was directly coupled on a CM5 chip at pH 5.0 using the standard amine coupling kit (Biacore, Freiburg/Germany). The immobilization level was approximately 8000 RU. […] The dissociation was monitored for 120 seconds. Bulk refractive index differences were corrected for by subtracting the response obtained on reference flow cell.

Experiment [6] addresses recombinant cynomolgus OX40 Fc(kih) (cynomolgus, UniProt P0DOX5 223-449 = IgG part, biotin on C-terminal Avi tag where used biotinylated). The experiment is described as follows: SPR, captured IgG, cyno OX40 Fc(kih) analyte.
Method: as §2
Anti-human Fab antibody (Biacore, Freiburg/Germany) was directly coupled on a CM5 chip at pH 5.0 using the standard amine coupling kit (Biacore, Freiburg/Germany). The immobilization level was approximately 9000 RU. […] The dissociation was monitored for 120 seconds. Bulk refractive index differences were corrected for by subtracting the response obtained on reference flow cell.
Experiment [7] addresses T4, human OX40 on cells. Nature of the experiment: flow cytometry, activated human CD4 T cells. In general terms: In flow cytometry, cells or beads pass a laser one at a time.
Experiment [8] has as its target T6, recombinant human OX40 Fc(kih) (human, UniProt P0DOX5 223-449 = IgG part, biotin on C-terminal Avi tag where used biotinylated).
T6 construct: antigen Fc knob chain plus Fc hole chain; also called monomeric human OX40 antigen Fc(kih) fusion; biotinylated human OX40
The experiment is described as follows: SPR, captured IgG, OX40 Fc(kih) analyte.
Method: as §2
Setup 1) Anti-human Fab antibody (Biacore, Freiburg/Germany) was directly coupled on a CM5 chip at pH 5.0 using the standard amine coupling kit (Biacore, Freiburg/Germany). The immobilization level was approximately 9000 RU. […] The dissociation was monitored for 120 seconds. Bulk refractive index differences were corrected for by subtracting the response obtained on reference flow cell.

Experiment [9] addresses T4, human OX40 on cells. Nature of the experiment: cell-based or functional assay. This is another data set of the same source.
Experiment [10] concerns the target T7, human fibroblast activation protein (huFAP) on cells (human, UniProt Q12884 1-760).
T7 construct: also called NIH/3T3-huFAP clone 39; NIH/3T3-huFAP clone 19
Nature of the experiment: flow cytometry, WM266-4 cells.

For experiment [11], the target named is T4, human OX40 on cells. Nature of the experiment: flow cytometry, activated human CD4 T cells. This is another data set of the same source.
Method: Plates were centrifuged 4 minutes with 400×g and at 4° C. and supernatant was flicked off. Cell were washed once with 200 μL 4° C. cold FACS buffer (DPBS supplied with 2% FBS, 5 mM EDTA pH8 (Amresco, Cat. No. E177) and 7.5 mM Sodium azide (Sigma-Aldrich S2002)). […] Plates were washed four times with 200 μL/well 4° C. FACS buffer to remove unbound construct.
Plates where washed twice with 200 μL/well 4° C.
For experiment [12], the target named is T8, mouse 4-1BB on activated mouse splenocytes (mouse, UniProt P20334 24-256). The experiment is described as follows: flow cytometry, activated murine CD4 T cells.
T8 sequence (P20334 24-256 limits assumed): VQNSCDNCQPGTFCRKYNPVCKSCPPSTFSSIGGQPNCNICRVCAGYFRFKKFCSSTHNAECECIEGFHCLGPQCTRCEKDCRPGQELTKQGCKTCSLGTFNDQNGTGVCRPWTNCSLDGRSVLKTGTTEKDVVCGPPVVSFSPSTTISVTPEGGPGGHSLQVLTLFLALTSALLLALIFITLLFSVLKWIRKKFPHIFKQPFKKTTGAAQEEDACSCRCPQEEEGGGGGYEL
Method: (§3) Cells were incubated for 30 min at 4° C., washed twice with 200 μL/well FACS-buffer and resuspended for fixation with 50 μL/well DPBS containing 1% (v/v) formaldehyde. The next day cells were resuspended in 200 μL/well FACS buffer and acquired using the 2-laser Cantoll (BD Bioscience with DIVA software) or 5-laser Fortessa (BD Bioscience with DIVA software). Gates were set on CD8⁺ and CD4⁺ T cells and the median fluorescence intensity (MFI) of the secondary detection antibody was used to analyze binding of primary antibodies. Using Graph Pad Prism (Graph Pad Software Inc.) data was baselined by subtracting the blank values (no primary antibody added) and the EC₅₀ values were calculated using non-linear regression curve fit (robust fit).
Experiment [13] has as its target T8, mouse 4-1BB on activated mouse …. Nature of the experiment: flow cytometry, activated murine CD8 T cells.
Method: as §3
Experiment [14] deals with T9, human FAP (His-tagged ectodomain) (human, UniProt Q12884 27-760).
T9 construct: SPR texts say 'human FAP' or 'His-tagged ... dimeric FAP'; also called hu FAP; human FAP (analyte 2)
Nature of the experiment: SPR, FAP captured via anti-His, 1:1 fit, apparent KD (bivalent).
Method: (§4) The capacity of the bispecific constructs to bind human, murine and cynomolgus FAP was assessed by surface plasmon resonance (SPR). All SPR experiments were performed on a Biacore T200 (Biacore) at 25° C. with HBS-EP as running buffer (0.01 M HEPES pH 7.4, 0.15 M NaCl, 3 mM EDTA, 0.005% Surfactant P20, (Biacore).
(§5) Immobilization levels for the anti-His antibody of up to 18000 resonance units (RU) were used.
(§6) Following the capture step, the bispecific constructs as well as control molecules were immediately passed over the chip surface at a concentration ranging from 0.006-100 nM with a flow rate of 30 μL/minute for 280 s and a dissociation phase of 180 s. Bulk refractive index differences were corrected for by subtracting the response obtained in a reference flow cell, where no FAP was immobilized. Affinity was determined using the Langmuir 1:1 curve fitting. For bivalent binding the same 1:1 fitting was used leading to an apparent KD value.

Experiment [15] deals with T10, murine FAP (His-tagged ectodomain) (mouse, UniProt P97321 27-761).
T10 construct: also called mu FAP
The experiment is described as above.
Method: as §4, §5, §6

For experiment [16], the target named is T4, human OX40 on cells. The experiment is described as follows: flow cytometry, activated human CD4 T cells. The source holds these as a separate data set.
Experiment [17] deals with T11, cynomolgus OX40 on activated cynomolgus PBMC (cynomolgus, UniProt P43489 29-214 (human entry)).
T11 construct: whole, on cells
T11 chain: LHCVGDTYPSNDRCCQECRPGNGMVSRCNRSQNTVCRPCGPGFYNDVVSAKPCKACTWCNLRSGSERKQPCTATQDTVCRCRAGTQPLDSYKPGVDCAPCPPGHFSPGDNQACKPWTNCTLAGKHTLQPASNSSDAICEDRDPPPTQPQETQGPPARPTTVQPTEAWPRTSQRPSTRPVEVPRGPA
The experiment is described as follows: flow cytometry, activated cynomolgus CD4 T cells.
Method: Then, plates were washed four times with 200 μL/well 4° C. FACS buffer. […] Plates where washed twice with 200 μL/well 4° C.

For experiment [18], the target named is T12, huOX40-SNAP fusion on Hek293 EBNA cells (human, UniProt P43489 29-277, labeled with the FRET donor Terbium).
T12 construct: not shown: SNAP tag
T12 sequence: T4 sequence
The experiment is described as follows: cell FRET competition against d2-labeled (49B4) IgG.

The target in experiment [19] is T13, cynomolgus FAP (His-tagged ectodomain) (cynomolgus, UniProt Q12884 27-760 (human entry)).
T13 construct: also called cynoFAP
Nature of the experiment: SPR, FAP captured via anti-His, 1:1 fit.
Method: as §4, §5, §6

Experiment [20] concerns the target T9, human FAP (His-tagged ectodomain). Nature of the experiment: SPR, FAP captured via anti-His, 1:1 fit.
Method: as §4, §5, §6
Experiment [21] has as its target T10, murine FAP (His-tagged ectodomain). Nature of the experiment: SPR, FAP captured via anti-His, 1:1 fit.
Method: as §4, §5, §6
Experiment [22] has as its target T7, human fibroblast activation protein …. Nature of the experiment: flow cytometry, WM266-4.
Method: In some assays WM266-4 cells were pre-labeled with PKH-26 Red Fluorescence Cell linker Kit (Sigma, Cat.-No. PKH26GL) as described in Example 2.3.2 to allow separation of these tumor cells from other cells present (e.g. human PBMC).
Plates were centrifuged 4 minutes, 400×g at 4° C. and supernatants were flicked off. Cells were washed once with 200 μL DPBS and pellets were resuspended by a short and gentle vortex. All samples were resuspended in 50 μL/well of 4° C. cold FACS buffer containing the bispecific antigen binding molecules (primary antibody) at the indicated range of concentrations (titrated) and incubated for 120 minutes at 4° C. Afterwards the cells were washed four times with 200 μL 4° C.

Changes are numbered by the printed parent chain. In names and notes the source's numbering stands. Read-outs that look alike come from different tables or passages of the source.

B1: 6C8 P329GLALA IgG1 (antibody, V domains shown)
VH: QVTLRESGPALVKPTQTLTLTCTFSGFSLSTSGMGVGWIRQPPGKALEWLAHIWWDDDKYYQPSLKSRLTISKDTSKNQVVLTMTNMDPVDTATYYCARTRRYFPFAYWGQGTLVTVSS
VL: EIVMTQSPATLSVSPGERATLSCKASQNVGTNVAWYQQKPGQAPRLLIYSASYRYSGIPARFSGSGSGTEFTLTISSLQSEDFAVYYCQQYNTDPLTFGGGTKVEIKR
notes: prepared according to WO 2006/105021; also called benchmark antibody 6C8
As usually defined, the koff is a measure of how fast the partners let go of each other. In general, kon refers to a measure of how fast the partners come together. As to B1, in experiment [1], the binding result is “no binding (tested: 0.2 to 200 nM IgG)”. Moreover, in experiment [2], the Kd was 30 nM, the koff is 0.0011 s⁻¹ and the kon was 38000 M⁻¹ s⁻¹. For the same molecule, in experiment [3], the Kd worked out at 190 nM, the koff worked out at 0.014 s⁻¹ and the kon was 73000 M⁻¹ s⁻¹.

B2: 8H9 P329GLALA IgG1 (antibody, V domains shown)
VH: QVQLVQSGAEVKKPGSSVKVSCKASGGTFSSYAISWVRQAPGQGLEWMGGIIPIFGTANYAQKFQGRVTITADKSTSTAYMELSSLRSEDTAVYYCAREYGWMDYWGQGTTVTVSS
VL: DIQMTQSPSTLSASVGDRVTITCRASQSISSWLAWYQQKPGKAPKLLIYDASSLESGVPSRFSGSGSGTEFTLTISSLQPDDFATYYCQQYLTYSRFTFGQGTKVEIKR
notes: anti-OX40; also called clone 8H9 hu IgG1
By EC50 is commonly meant the midpoint of the concentration-response curve. Low readings indicate an effect from little substance, high ones a need for much substance. For the molecule B2, in [4], the “EC50 of NFκB activation in HeLa_hOx40_NFκB_luc1 reporter cells with secondary anti-human IgG Fcγ antibody” value stood at 0.66 nM. The values for the Kd in experiment [5], in experiment [6] and in experiment [8] were 31 nM, 670 nM and 28 nM, respectively. Also, the dissociation rate constant (koff) in experiment [5] worked out at 0.002 s⁻¹; in experiment [6] it was 0.096 s⁻¹; in experiment [8], 0.0045 s⁻¹. For the same molecule, the on-rate constant (kon) stood at 65000 M⁻¹ s⁻¹ in experiment [5], 140000 M⁻¹ s⁻¹ in experiment [6] and 160000 M⁻¹ s⁻¹ in experiment [8]. Further, the EC50 in experiment [7] and in experiment [11] was 0.59 nM in each case. Also, the “EC50 of rescuing suboptimal TCR stimulation with plate-immobilized anti-OX40 binder (preactivated human CD4 T cells)” value in experiment [9] came to 0.003 nM. Moreover, the binding result in experiment [10] is recorded as “no binding”.

B3: 8A06 P329GLALA IgG1 (antibody, V domains shown)
VH: B2 VH with E99G, G101Y, W102A, M103I
VL: SSELTQDPAVSVALGQTVRITCQGDSLRSYYASWYQQKPGQAPVLVIYGKNNRPSGIPDRFSGSSSGNTASLTITGAQAEDEADYYCNSPQTSGSAVFGGGTKLTVLG
notes: also called anti-GITR 8A06 IgG
On to B3, for which, in experiment [1], the binding result is recorded as “no binding (tested: 0.2 to 200 nM IgG)”. Besides, the results for the Kd in experiment [2] and in [3] were 29 nM and 1200 nM, respectively.

B4: 20G2 mu IgG1 κ wt (antibody, V domains shown)
VH: QVQLVQSGAEVKKPGSSVKVSCKASGGTFSSYAISWVRQAPGQGLEWMGGIIPIFGTANYAQKFQGRVTITADKSTSTAYMELSSLRSEDTAVYYCARSYYWESYPFDYWGQGTTVTVSS
VL: DIQMTQSPSTLSASVGDRVTITCRASQSISSWLAWYQQKPGKAPKLLIYDASSLESGVPSRFSGSGSGTEFTLTISSLQPDDFATYYCQQQHSYYTFGQGTKVEIK
notes: mouse IgG1 kappa wild type; also called 20G2 mouse IgG1 wildtype
Consider B4, for which the figures for the EC50 in [12] and in experiment [13] were 9.92 nM and 18.5 nM, respectively.

B5: 28H1 IgG (antibody, V domains shown)
VH: EVQLLESGGGLVQPGGSLRLSCAASGFTFSSHAMSWVRQAPGKGLEWVSAIWASGEQYYADSVKGRFTISRDNSKNTLYLQMNSLRAEDTAVYYCAKGWLGNFDYWGQGTLVTVSS
VL: EIVLTQSPGTLSLSPGERATLSCRASQSVSRSYLAWYQQKPGQAPRLLIIGASTRATGIPDRFSGSGSGTDFTLTISRLEPEDFAVYYCQQGQVIPPTFGQGTKVEIK
notes: anti-FAP control IgG
Consider B5, for which the results for the Kd in experiment [14] and in [15] were 0.933 nM and 0.00049 nM, respectively.

B6: 49B4 P329GLALA IgG1 (antibody, V domains shown)
VH: QVQLVQSGAEVKKPGSSVKVSCKASGGTFSSYAISWVRQAPGQGLEWMGGIIPIFGTANYAQKFQGRVTITADKSTSTAYMELSSLRSEDTAVYYCAREYYRGPYDYWGQGTTVTVSS
VL: DIQMTQSPSTLSASVGDRVTITCRASQSISSWLAWYQQKPGKAPKLLIYDASSLESGVPSRFSGSGSGTEFTLTISSLQPDDFATYYCQQYSSQPYTFGQGTKVEIKR
notes: anti-OX40; sometimes misprinted 49B9; also called 49B4 IgG1; hu IgG1 (49B4)
For the molecule B6, the “EC50 of NFκB activation in HeLa_hOx40_NFκB_luc1 reporter cells with secondary anti-human IgG Fcγ antibody” value in experiment [4] was 2.42 nM. Further, the values for the Kd in experiment [5], in experiment [6] and in experiment [8] were 460 nM, 350 nM and 510 nM, respectively. In addition, the koff stood at 0.67 s⁻¹ in experiment [5], 0.038 s⁻¹ in experiment [6] and 0.13 s⁻¹ in experiment [8]. Also, the kon in experiment [5] was determined as 1.4e+06 M⁻¹ s⁻¹; in [6], 110000 M⁻¹ s⁻¹; in experiment [8], 250000 M⁻¹ s⁻¹. In addition, the EC50 in [16] was 907 nM; in experiment [17], 0.05 nM; in experiment [18], 12.7 nM; in experiment [11] it was 4.19 nM. Further, in [9], the “EC50 of rescuing suboptimal TCR stimulation with plate-immobilized anti-OX40 binder (preactivated human CD4 T cells)” value was found to be 0.591 nM. The binding result in [10] is on record as “no binding”.

B7: OX40(49B4)/FAP(4B9) P329GLALA IgG1 1+1 (bispecific antibody, V domains shown)
VH 1: B6 VH
VL 1: DIQMTQSPSTLSASVGDRVTITCRASQSISSWLAWYQQKPGKAPKLLIYDASSLESGVPSRFSGSGSGTEFTLTISSLQPDDFATYYCQQYSSQPYTFGQGTKVEIK
VH 2: EVQLLESGGGLVQPGGSLRLSCAASGFTFSSYAMSWVRQAPGKGLEWVSAIIGSGASTYYADSVKGRFTISRDNSKNTLYLQMNSLRAEDTAVYYCAKGWFGGFNYWGQGTLVTVSS
VL 2: B5 VL with S30T, R31S, I50N, G51V, A52G, T54R, Q93I, V94M, I95L
notes: only variable domains of 49B4 and 4B9; human IgG1 P329G LALA
On to B7, for which the results for the Kd in [19], in experiment [20] and in [21] were 0.532 nM, 0.752 nM and 4.79 nM, respectively.

B8: 8H9/FAP P329GLALA IgG1 2+2 (bispecific antibody)
heavy: not shown
light 1: not shown
light 2: EIVLTQSPGTLSLSPGERATLSCRASQSVSRSYLAWYQQKPGQAPRLLIIGASTRATGIPDRFSGSGSGTDFTLTISRLEPEDFAVYYCQQGQVIPPTFGQGTKVEIKSSASTKGPSVFPLAPSSKSTSGGTAALGCLVKDYFPEPVTVSWNSGALTSGVHTFPAVLQSSGLYSLSSVVTVPSSSLGTQTYICNVNHKPSNTKVDKKVEPKSCD
notes: also called bispecific bivalent 2+2 construct 8H9; 8H9 FAP 2+2
Regarding B8, the EC50 was 0.93 nM in [7] and 2.88 nM in [22].

These data come from patent publication US20220073646A1 (Hoffmann-La Roche, published 2022).
